The results in this text go back to the supplement of paper PMC12455559.

Data set [1] can be described thus: PET hydrolysis, aromatic products released after 48 h (umol product/mg enzyme); higher = more PET depolymerization activity. The method, boiled down:
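Reactions ran in sealed plates without shaking for 48 h at 40 or 60 °C. Each held 3.5 mg amorphous PET film or crystalline PET powder, 450 μL buffer and 5 μg (50 μL) of tagless, SUMO-cleaved, nickel-purified candidate enzyme. Buffers were 50 mM NaCitrate at pH 4.5 or 5.5, 50 mM NaPhosphate at pH 6.5 or 7.5, and glycine at pH 8.5. The supernatant's aromatic product, read at 260 and 280 nm against buffer blanks, gives PET hydrolysis activity per mg enzyme.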

Data set [2] in a line: melting temperature (DSF); higher = more thermostable. The method in brief: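 Candidate enzymes were expressed in E. coli C41(DE3), purified on nickel beads and released by SUMO protease cleavage. For differential scanning fluorimetry, 45 μL enzyme (0 to 0.3 mg/mL) was mixed with 5 μL 5X Sypro Orange in sealed PCR plates on a Bio-Rad CFX96 instrument. Fluorescence was read from 25 °C in steps of 0.3 °C per cycle (ramp 0.3 °C/s) for 250 cycles. The read-out is melting temperature.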

Data set [3] in a line: purified protein yield per well (BCA); higher = higher soluble expression. The method, boiled down: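 On an OT-2 robot, lysed cells were processed by binding protein to Ni-charged magnetic beads and releasing it with SUMO protease. Expression took place in E. coli C41(DE3), in 2 mL autoinduction cultures with 100 µg/mL kanamycin, for 2 h at 37 °C followed by 40 h at 18 °C. The Pierce Rapid Gold BCA kit was used to quantify purified protein yield in each well, with values under 25 ug (0.1 mg/mL) below the detection threshold.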

Where [4] appears, read: substrate: cryPow, 40 °C, pH 4.5.
[5] abbreviates: substrate: cryPow, 40 °C, pH 5.5.
[6] abbreviates: substrate: cryPow, 40 °C, pH 6.5.
Setting [7] is: substrate: cryPow, 40 °C, pH 7.5.
Where [8] appears, read: substrate: cryPow, 60 °C, pH 4.5.
The mark [9] stands for this setting: substrate: cryPow, 60 °C, pH 5.5.
Setting [10] is: substrate: cryPow, 60 °C, pH 6.5.
Setting [11] is: substrate: cryPow, 60 °C, pH 7.5.

For “AGNPYQRGPDPTLASVAASRGTFATAQVSVPPGNGFNGGTIYYPTDTTQGTWGAVAIVPGYTALFANEEAWMGPWLASFGFVVIGIETNSRNDFDTARGTQLLAALDYLTQKSPVRDRVDSARLGVIGHSMGGGGVVYATEHRPSLKAAVALAPFSPSQDMSTDHVPTMVMAGQNDTVVTPSYLDGLYATMPASAQSDFVQLAGADHVAYTHPNTTEMRLLIPWLKIFLDDDTRYTQFLCPLKDSTGVSMYRAKCPYVPPGGPTTSPTPTTTPTPPDGGACSATYRTVNSWSGGYQGEITVTAGGAAIDGWTVRWSLGGGQTVTQVWNGTLSTSGSTASVANASYNGSLQASASTTFGFLANGTPSTPALTCSSP [ESM084]”, the PET hydrolysis in data set [1] (setting [4]) is below 3; in data set [1] (setting [5]) it was 5; in data set [1] (setting [6]), below 3; in data set [1] (setting [7]), below 3; in data set [1] (setting [8]), below 3; in data set [1] (setting [9]), below 3. The PET hydrolysis in data set [1] (setting [10]) and in data set [1] (setting [11]) was below 3 in each case. This sequence displayed a melting temperature in data set [2] of 43.9 C. For the same sequence, the “purified protein yield per well” value in data set [3] stood at 119 µg.

With “STRNQEPTLQSIEAARGPYEIATQSVPPAVNTGFGGGTIYYPATTGAGKFGAVALSPGYMEKEYSFSWLGTRLASQGFVVFIINTQNSEEFPSARTDELLASLNYLTQTSEVRDRVDPNRLAVMGHSMGGGAALEAAEKNQSLRAVISMTPWNIKTTYSDIKTPTLIIGAQYDNIAPVHDHAQPSYASLPNDLAKSYLELRNGNHFSPNMENTAIARSSTVWLKRFVDGDTRYNKFICPGPTVGDEFNIVQSNCPIL [DP079]”, the PET hydrolysis in data set [1] (substrate: aFilm, 40 °C, pH 5.5) is below 3; in data set [1] (substrate: aFilm, 40 °C, pH 6.5), below 3; in data set [1] (substrate: aFilm, 40 °C, pH 7.5), below 3; in data set [1] (substrate: aFilm, 40 °C, pH 8.5), below 3; in data set [1] (substrate: aFilm, 60 °C, pH 5.5) it was below 3; in data set [1] (substrate: aFilm, 60 °C, pH 6.5), below 3. Further, the PET hydrolysis was below 3 in data set [1] (substrate: aFilm, 60 °C, pH 7.5); below 3 in data set [1] (substrate: aFilm, 60 °C, pH 8.5); below 3 in data set [1] (setting [5]); below 3 in data set [1] (setting [6]); below 3 in data set [1] (setting [7]); below 3 in data set [1] (substrate: cryPow, 40 °C, pH 8.5). Further, the PET hydrolysis in data set [1] (setting [9]) was below 3; in data set [1] (setting [10]), below 3; in data set [1] (setting [11]) it was below 3; in data set [1] (substrate: cryPow, 60 °C, pH 8.5), below 3. This sequence also returned a melting temperature in data set [2] of 60.4 C. Besides, in data set [3], the “purified protein yield per well” value was determined as 281 µg.

With “ADQRGPDPTVQSIEAARGPFATSTSRVSSLVSGFGGGTIYYPTDTSQGRFGGVVIAPGYTAGESSIAWLGPRLASQGFVVFTIDTLTRVDQPASRGRQLLAAADYLTQRSDVADRVDPARLAVMGHSMGGGGTLEAAKSRPGLKAIIPLTPWNLDKTWPEITTPTLIFGAQNDSVASVVTHARPFYQSLPATTPRSYLELRGASHFAPNLSNTTIAKYSIAWLKRFVDDDQRYTQFLCPAPADTALSDVRTSCPF [TEP091]”, the PET hydrolysis was below 3 in data set [1] (setting [4]), 5 in data set [1] (setting [5]), 10 in data set [1] (setting [6]) and 17 in data set [1] (setting [7]). In data set [2], the melting temperature was 55.6 C. In addition, the “purified protein yield per well” value in data set [3] came to 36.2 µg.

For the sequence “MASIVVPGSAAAADNPYQRGPNPTQASVAANRGTFATAETSVGGGNGFGGAKIYYPTDTSQGTFGAIAVVPGYTATWAAEGAWMGHWLSSFGFVVIGIDTNSRNDNDTARGTQLLAALDYLTQRSSVRARVDPNRLAVMGHSMGGGGAISAALRRPTLKAAIGNAPFSPSQNLSTMRVPTALLAGQRDGTVTPSLVSGYYNQIPASTEKMYLELTGAGHGFPTSNNSVATRKWVPWMKIFLDQDTRYQQFLCPLLDNTGISAYRSTCPLIPGDPAPGTTFSLAGSASGKCVDVPGGTQTNGAGLIIWPCRGVTNQRWAQTAAGELRIYDNAKCMDANASGQGARVTINSCHGGASQKWTVNTNGTVTNSASGRCLEAVGTADDAPVVVNTCNGGSGQTWAKRA [TEP164]”, the PET hydrolysis in data set [1] (setting [4]) is below 3; in data set [1] (setting [5]), 7; in data set [1] (setting [6]), 25; in data set [1] (setting [7]) it was 31; in data set [1] (setting [8]), below 3; in data set [1] (setting [9]) it was below 3. Moreover, the PET hydrolysis in data set [1] (setting [10]) and in data set [1] (setting [11]) was below 3 throughout. Further, the melting temperature in data set [2] was 64 C. For the same sequence, the “purified protein yield per well” value in data set [3] turned out to be 192 µg.

As to “ADNPYQRGPDPTRTSVTAENGPFANTSVSVPTGYGFNGGRIYYPTDTSQGTFGAIAISPGYTALFSAELAWMGPWLASHGFVVIGIETNSRNDFDTARGTQLLAALDYLTQQSPIRDRVDPNRLAVAGHSMGGGGALSAASRRSSLRAVVGIAPYSPSSNLANDRVPTMIFSGQADTVVTPSYATGLYNSLPATTKSVYLEVAGADHGFMVGRSNPVMIRTMLPFVKMFIDNDARYSQFLCPLLDSSGVVTYRSTCPLLPSTPTTPTPTPTDPPTVPPGSANEIVGTQSGRCVDVPNASRNNGTRVQLYDCNKQTNQAWTYTATKQLQVYGNMCLDAAGSGNGAAVQIYSCHSQTNQQWNVNSNGTISSVQSGRCLDAWSTTNGAQIQLYDCHGQTNQQFRLVSLAR [ESM161]”, the PET hydrolysis in data set [1] (setting [4]) is 10; in data set [1] (setting [5]), 13; in data set [1] (setting [6]) it was 21; in data set [1] (setting [7]), 6; in data set [1] (setting [8]), below 3; in data set [1] (setting [9]) it was below 3. For the same sequence, the PET hydrolysis in data set [1] (setting [10]) and in data set [1] (setting [11]) was below 3 throughout. The sequence also returned a melting temperature in data set [2] of 63.1 C. Besides, the “purified protein yield per well” value in data set [3] worked out at 137 µg.

Consider “ADNPYQRGPEPTTSSVAATRGTFATAEVSVSKGNGFGGGKIYYPTDTSKGTFGAIAVVPGYTATWAAEGAWMGPWLASFGFVVIGIDTNSRTDYDTARGTQLLAALDYLTQKSSVRSRVDVKRLSVMGHSMGGGGAMYAALHRPSLWAAVGNAPFSPSQNLKSDRVPTLLLAGQKDTTVTPSSVVGLYNGIPAATEKGYLELTGAAHNFPTRSNSVMMRKVVPWLKIFVDHDTRYGQFLCPSLKDTTGITSYRSTCPLTTAGQ [ESM078]”, for which the PET hydrolysis in data set [1] (setting [4]), in data set [1] (setting [5]), in data set [1] (setting [6]), in data set [1] (setting [7]), in data set [1] (setting [8]) and in data set [1] (setting [9]) was below 3 throughout. Further, the PET hydrolysis in data set [1] (setting [10]) and in data set [1] (setting [11]) was below 3 throughout. The sequence further yielded a melting temperature in data set [2] of 52 C. In data set [3], the “purified protein yield per well” value was 68.8 µg.

Regarding “ADNPYQRGPDPTLASVSAQRGTFATAQVAVPAGDGFGGGMIYYPTDTSQGTFGAVAIVPGYTARFSVEEAWMGHWLASFGFVVIGVETNSTNDFDTARGTQLLAALDYLTQRSSVRDRVDASRQSVVGHSMGGGGALYAAGQRASLKAAVGLAPYKPSGNPTNVRVPTMIISGQNDTVVTPSYATGLYNTLPATTESAYMEFTGADHLFPTRANTLEMRILIPWLKIFVDSDNRYSQFLCPLQDSTGIRGYRSTCPFLPNPTTSPSTTAPTTPPTTPPTTPPTGACSATYRTVNSWPGGFQGEVTVSAGSTPVDGWAVRWTLASGQAVTQVWNGALSVSGSAVTVRNTTYNGSLGANASTTFGFLASGSPTPVSLTCTSP [ESM033]”, the PET hydrolysis in data set [1] (setting [4]) was 9; in data set [1] (setting [5]), 25; in data set [1] (setting [6]) it was 35; in data set [1] (setting [7]), 6; in data set [1] (setting [8]), below 3; in data set [1] (setting [9]), below 3. Also, the PET hydrolysis in data set [1] (setting [10]) and in data set [1] (setting [11]) was below 3 each time. The sequence further displayed a melting temperature in data set [2] of 53.8 C. Further, the “purified protein yield per well” value in data set [3] was 594 µg.
